Experimental findings from patent US7223596B2, “Malignant endothelial cell line and uses thereof in models for angiogenesis” (Wisconsin Alumni Research Foundation, priority 2003, dated 2007) are described below.

Experiment [1] relates to SB-HSA tumors. Kind of experiment: treatment of SB-HSA tumor-bearing mice (subcutaneous canine hemangiosarcoma xenograft). In kind it is in vivo. The following applies: NOD-SCID mice injected s.c. with SB-HSA cells, vs PBS control. On the procedure:
For example, IL-12 was also shown, to suppress the growth of canine hemangiosarcoma in vivo in this model. IL-12 is a cytokine with pleotropic effects including suppression of angiogenesis due to in vivo inhibition of endothelial cell growth. This activity is mediated by downstream chemokines such as IP-10 and Mig, which are induced by interferon-γ in response to IL-12. […] Control mice that were injected subcutaneously with SB-HSA cells and received phosphate buffered saline developed tumors at the site of cell inoculation by the second week that progressively enlarged over a 4-week observation period.
Canine hemangiosarcoma xenografts were established in NOD-SCID mice by injection of 5×10^6 SB-HSA cells suspended in 200 μl PBS over the dorsum using a 26 gauge needle and tuberculin syringe. Mice were examined every other day until tumors were detected and measured with calipers. Animals were sacrificed when tumors reached a size of 1 cm^3.
NOD-SCID mice were injected subcutaneously over the dorsum with SB-HSA cells (5×10^6 cells/200 μl). […] Pumps were designed to deliver 6 μl/day (1 μg IL-12/day for four weeks. The mice were examined every other day for tumor development. The two largest perpendicular diameters were measured with calipers.

Experiment [2] relates to angiogenesis induced by SB-HSA cells. Kind of experiment: corneal pocket angiogenesis assay with sponges containing SB-HSA cells. The settings on record: BALB/c mice, sponges with 70,000 SB-HSA cells in cornea; continuous subcutaneous infusion by osmotic pump from day 2; examined one week after treatment; vs PBS-treated control. It counts as in vivo. How it is done:
IL-12 is a cytokine with both immunostimulatory and antiangiogenic effects. In these experiments, sponges containing 70,000 SB-HSA cells were placed into the corneas of BALB/c mice. Two days after placement of the sponges, the mice were randomized to receive either mrIL-12 or phosphate buffered saline. Each was delivered as a continuous subcutaneous infusion by subcutaneously implanted osmotic pumps. One week after treatment, mice were injected with FITC-dextran, euthanized and the corneas examined.
Polyvinyl sponges (Rippey, Eldorado Hills, Calif.) preirradiated with 2000 Gy of gamma irradiation (cesium source) were cut into 4×4×2 mm pieces, and 70,000 SB-HSA cells were introduced into the sponges. BALB/c mice were anesthetized with AVERTIN and a small surgical micropocket was created in the center of the avascular cornea. Sponges were then inserted into the micropocket. Eyes were examined for neovascularization daily using an ophthalmic microscope (Carl Zeiss Inc, Thornwood, N.Y.). […] Phase contrast and fluorescence microscopy were used to visualize the general layout of the cornea and the presence of perfused blood vessels, respectively (Muthukkaruppan, V. and Auerbach, R. Science 1979 205:1416–1418).

B1: Interleukin-12 (protein, UniProt P43431 23-215; P43432 23-335, looked up)
Interleukin-12 subunit alpha: RVIPVSGPARCLSQSRNLLKTTDDMVKTAREKLKHYSCTAEDIDHEDITRDQTSTLKTCLPLELHKNESCLATRETSSTTRGSCLPPQKTSLMMTLCLGSIYEDLKMYQTEFQAINAALQNHNHQQIILDKGMLVAIDELMQSLNHNGETLRQKPPVGEADPYRVKMKLCILLHAFSTRVVTINRVMGYLSSA
Interleukin-12 subunit beta: MWELEKDVYVVEVDWTPDAPGETVNLTCDTPEEDDITWTSDQRHGVIGSGKTLTITVKEFLDAGQYTCHKGGETLSHSHLLLHKKENGIWSTEILKNFKNKTFLKCEAPNYSGRFTCSWLVQRNMDLKFNIKSSSSSPDSRAVTCGMASLSAEKVTLDQRDYEKYSVSCQEDVTCPTAEETLPIELALEARQQNKYENYSTSFFIRDIIKPDPPKNLQMKPLKNSQVEVSWEYPDSWSTPHSYFSLKFFVRIQRKKEKMKETEEGCNQKGAFLVEKTSTEVQCKGGNVCVQAQDRYYNSSCSKWACVPCRVRS
Take B1: the growth of tumors result in experiment [1] (continuous subcutaneous infusion 1 μg IL-12/day for four weeks) was “initially suppressed for two weeks followed by slower growth”. In experiment [1] (continuous subcutaneous infusion 1 μg IL-12/day, end of 4-week observation period), the “tumor size at end of observation period” value is reported as “significantly smaller size”. Moreover, in experiment [2], the corneal neovascularity result was “significantly less corneal neovascularity”.
